Measurements taken from patent US20150344570A1 (published 2015).

Tests used:
[1] = target: T1, FcγRIa extracellular domain with C-terminal His tag (human, UniProt P12314 16-292); experiment: SPR (Biacore), captured antibody, FcγR as analyte; relative binding
T1 construct: extracellular domain; expressed in FreeStyle293 cells; analyte in Biacore; also called FcgRI; 1a

[2] = target: T2, FcγRIIb extracellular domain with C-terminal His tag (human, UniProt P31994 43-217); experiment: as above
T2 construct: extracellular domain; expressed in FreeStyle293 cells; analyte in Biacore; also called FcgRIIb; 2b
T2 sequence (looked up): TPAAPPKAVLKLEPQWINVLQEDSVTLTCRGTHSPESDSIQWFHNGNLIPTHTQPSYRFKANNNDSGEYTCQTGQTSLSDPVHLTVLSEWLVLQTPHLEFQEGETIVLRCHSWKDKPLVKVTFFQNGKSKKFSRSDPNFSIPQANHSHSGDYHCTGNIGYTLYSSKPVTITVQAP

T1 sequence (P12314 16-292): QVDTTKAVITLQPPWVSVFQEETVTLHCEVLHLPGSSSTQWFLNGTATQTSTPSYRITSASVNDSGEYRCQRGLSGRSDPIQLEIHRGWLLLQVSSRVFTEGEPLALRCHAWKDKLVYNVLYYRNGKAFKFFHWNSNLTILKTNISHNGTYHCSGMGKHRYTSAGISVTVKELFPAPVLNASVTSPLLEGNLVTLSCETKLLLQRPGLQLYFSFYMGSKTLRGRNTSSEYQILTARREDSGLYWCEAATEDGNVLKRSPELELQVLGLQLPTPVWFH

Binder	He/Con_1a [1]	He/Con_2b [2]
GpH7-A5/GpH7-B3 variant Y296_16H/GpL16-k0 (antibody, human IgG1, kappa, He Ab; IgG1, mutation in one H chain) heavy 1: not shown heavy 2: not shown light: DIVMTQSPLSLPVTPGEPASISCQASESLVHSNRNTYLHWYLQKPGQSPQLLIYKVSNRFSGVPDRFSGSGSGTDFTLKISRVEAEDVGVYYCSQNTHVPPTFGQGTKVEIERTVAAPSVFIFPPSDEQLKSGTASVVCLLNNFYPREAKVQWKVDNALQSGNSQESVTEQDSKDSTYSLSSTLTLSKADYEKHKVYACEVTHQGLSSPVTKSFNRGEC	106 % of HeCon Ab (GpH7-A5/GpH7-B3/GpL16-k0 = 100)	92.2 % of HeCon Ab (GpH7-A5/GpH7-B3/GpL16-k0 = 100)
GpH7-A5/GpH7-B3 variant Y300_01G/GpL16-k0 (antibody, human IgG1, kappa, He Ab; IgG1, mutation in one H chain) heavy 1: not shown heavy 2: not shown light: DIVMTQSPLSLPVTPGEPASISCQASESLVHSNRNTYLHWYLQKPGQSPQLLIYKVSNRFSGVPDRFSGSGSGTDFTLKISRVEAEDVGVYYCSQNTHVPPTFGQGTKVEIERTVAAPSVFIFPPSDEQLKSGTASVVCLLNNFYPREAKVQWKVDNALQSGNSQESVTEQDSKDSTYSLSSTLTLSKADYEKHKVYACEVTHQGLSSPVTKSFNRGEC	116 % of HeCon Ab (GpH7-A5/GpH7-B3/GpL16-k0 = 100)	48.4 % of HeCon Ab (GpH7-A5/GpH7-B3/GpL16-k0 = 100)
GpH7-A5/GpH7-B3 variant Y300_06M/GpL16-k0 (antibody, human IgG1, kappa, He Ab; IgG1, mutation in one H chain) heavy 1: not shown heavy 2: not shown light: DIVMTQSPLSLPVTPGEPASISCQASESLVHSNRNTYLHWYLQKPGQSPQLLIYKVSNRFSGVPDRFSGSGSGTDFTLKISRVEAEDVGVYYCSQNTHVPPTFGQGTKVEIERTVAAPSVFIFPPSDEQLKSGTASVVCLLNNFYPREAKVQWKVDNALQSGNSQESVTEQDSKDSTYSLSSTLTLSKADYEKHKVYACEVTHQGLSSPVTKSFNRGEC	112 % of HeCon Ab (GpH7-A5/GpH7-B3/GpL16-k0 = 100)	84.3 % of HeCon Ab (GpH7-A5/GpH7-B3/GpL16-k0 = 100)
GpH7-A5/GpH7-B3 variant Y300_02A/GpL16-k0 (antibody, human IgG1, kappa, He Ab; IgG1, mutation in one H chain) heavy 1: not shown heavy 2: not shown light: DIVMTQSPLSLPVTPGEPASISCQASESLVHSNRNTYLHWYLQKPGQSPQLLIYKVSNRFSGVPDRFSGSGSGTDFTLKISRVEAEDVGVYYCSQNTHVPPTFGQGTKVEIERTVAAPSVFIFPPSDEQLKSGTASVVCLLNNFYPREAKVQWKVDNALQSGNSQESVTEQDSKDSTYSLSSTLTLSKADYEKHKVYACEVTHQGLSSPVTKSFNRGEC	112 % of HeCon Ab (GpH7-A5/GpH7-B3/GpL16-k0 = 100)	69.2 % of HeCon Ab (GpH7-A5/GpH7-B3/GpL16-k0 = 100)
GpH7-A5/GpH7-B3 variant Y296_18N/GpL16-k0 (antibody, human IgG1, kappa, He Ab; IgG1, mutation in one H chain) heavy 1: not shown heavy 2: not shown light: DIVMTQSPLSLPVTPGEPASISCQASESLVHSNRNTYLHWYLQKPGQSPQLLIYKVSNRFSGVPDRFSGSGSGTDFTLKISRVEAEDVGVYYCSQNTHVPPTFGQGTKVEIERTVAAPSVFIFPPSDEQLKSGTASVVCLLNNFYPREAKVQWKVDNALQSGNSQESVTEQDSKDSTYSLSSTLTLSKADYEKHKVYACEVTHQGLSSPVTKSFNRGEC	106 % of HeCon Ab (GpH7-A5/GpH7-B3/GpL16-k0 = 100)	91.5 % of HeCon Ab (GpH7-A5/GpH7-B3/GpL16-k0 = 100)
GpH7-A5/GpH7-B3 variant Y300_07I/GpL16-k0 (antibody, human IgG1, kappa, He Ab; IgG1, mutation in one H chain) heavy 1: not shown heavy 2: not shown light: DIVMTQSPLSLPVTPGEPASISCQASESLVHSNRNTYLHWYLQKPGQSPQLLIYKVSNRFSGVPDRFSGSGSGTDFTLKISRVEAEDVGVYYCSQNTHVPPTFGQGTKVEIERTVAAPSVFIFPPSDEQLKSGTASVVCLLNNFYPREAKVQWKVDNALQSGNSQESVTEQDSKDSTYSLSSTLTLSKADYEKHKVYACEVTHQGLSSPVTKSFNRGEC	108 % of HeCon Ab (GpH7-A5/GpH7-B3/GpL16-k0 = 100)	74.5 % of HeCon Ab (GpH7-A5/GpH7-B3/GpL16-k0 = 100)
GpH7-A5/GpH7-B3 variant Y300_03V/GpL16-k0 (antibody, human IgG1, kappa, He Ab; IgG1, mutation in one H chain) heavy 1: not shown heavy 2: not shown light: DIVMTQSPLSLPVTPGEPASISCQASESLVHSNRNTYLHWYLQKPGQSPQLLIYKVSNRFSGVPDRFSGSGSGTDFTLKISRVEAEDVGVYYCSQNTHVPPTFGQGTKVEIERTVAAPSVFIFPPSDEQLKSGTASVVCLLNNFYPREAKVQWKVDNALQSGNSQESVTEQDSKDSTYSLSSTLTLSKADYEKHKVYACEVTHQGLSSPVTKSFNRGEC	117 % of HeCon Ab (GpH7-A5/GpH7-B3/GpL16-k0 = 100)	73.9 % of HeCon Ab (GpH7-A5/GpH7-B3/GpL16-k0 = 100)
GpH7-A5/GpH7-B3 variant Y296_19Q/GpL16-k0 (antibody, human IgG1, kappa, He Ab; IgG1, mutation in one H chain) heavy 1: not shown heavy 2: not shown light: DIVMTQSPLSLPVTPGEPASISCQASESLVHSNRNTYLHWYLQKPGQSPQLLIYKVSNRFSGVPDRFSGSGSGTDFTLKISRVEAEDVGVYYCSQNTHVPPTFGQGTKVEIERTVAAPSVFIFPPSDEQLKSGTASVVCLLNNFYPREAKVQWKVDNALQSGNSQESVTEQDSKDSTYSLSSTLTLSKADYEKHKVYACEVTHQGLSSPVTKSFNRGEC	112 % of HeCon Ab (GpH7-A5/GpH7-B3/GpL16-k0 = 100)	89.3 % of HeCon Ab (GpH7-A5/GpH7-B3/GpL16-k0 = 100)
